Patent publication US20240287161A1 (NATIONAL UNIVERSITY CORPORATION TOTTORI UNIVERSITY, published 2024)

Key:
[1] = molecular target: T1, SARS-CoV2 S protein on VSV pseudovirus (SARS-CoV-2, UniProt P0DTC2 14-1273); test: cell-based or functional assay
[2] = molecular target: T2, SARS-CoV1 spike protein on VSV pseudovirus (SARS-CoV-1, UniProt P59594 14-1255); test: cell-based or functional assay
[3] = molecular target: T1, SARS-CoV2 S protein on VSV pseudovirus; test: cell-based or functional assay; remark: listed apart in the source
Authentic CoV2 [4] = molecular target: T3, Authentic CoV2 (SARS-CoV-2 JPN/TY/WK-521); test: cell-based or functional assay
Authentic CoV2 [5] = molecular target: T3, Authentic CoV2; test: cell-based or functional assay; remark: listed apart in the source
[6] = molecular target: T2, SARS-CoV1 spike protein on VSV …; test: cell-based or functional assay; remark: listed apart in the source
[7] = molecular target: MERS-CoV recombinant S protein RBD region, 9x His tag (Example 1) (MERS-CoV, UniProt K9N5Q8 367-606); test: ELISA on RBD-coated plate (FIG. 3)
[8] = molecular target: SARS-CoV1 recombinant S protein RBD region, 9x His tag (Example 1) (SARS-CoV1, UniProt P59594 306-527); test: ELISA on RBD-coated plate (FIG. 3)
[9] = molecular target: SARS-CoV-2 spike receptor-binding domain (RBD, amino acids 322 to 536), histidine-tagged (Example 2) (SARS-CoV-2, UniProt P0DTC2 322-536)

Binder	IC50, pseudovirus neutralization [NT-193] [1]	IC50, authentic virus neutralization [NT-193] (Authentic CoV2 [5])	IC50, pseudovirus neutralization [NT-108] [1]	IC50, authentic virus neutralization [NT-108] (Authentic CoV2 [5])	other results
NT-193 (recombinant human IgG1/kappa antibody) (antibody, V domains shown) VH: EVQLQQWGAGLLKPSETLSLTCAVYGGSFSGYYWSWIRQPPGKGLEWIGEINHSGSTNYNPSLKSRVTISVDTSKNQFSLKLSSVTAADTAVYYCARGWDLDYYYGMDVWGQGTTVTVSS VL: DIRMTQSPSAMSASVGDRVTVTCRASQGIGNYLAWFQLKPGKVPKRLIYAASSLQSGVPARFSGGGSGTEFTLTISSLQPEDFATYYCLQHGFLPWTFGQGTKLEIK	0.0111 µg/mL	0.241 µg/mL	–	–	IC50 of the neutralizing activity against SARS-CoV (pseudovirus) [2]: 0.013 µg/mL; IC50, pseudovirus neutralization [3]: 0.0209 µg/mL; IC50, authentic virus neutralization (Authentic CoV2 [4]): 0.0851 µg/mL; IC50, pseudovirus neutralization [6]: 0.0061 µg/mL
NT-193, human IgG4 subclass (antibody, V domains shown) VH: EVQLQQWGAGLLKPSETLSLTCAVYGGSFSGYYWSWIRQPPGKGLEWIGEINHSGSTNYNPSLKSRVTISVDTSKNQFSLKLSSVTAADTAVYYCARGWDLDYYYGMDVWGQGTTVTVSS VL: DIRMTQSPSAMSASVGDRVTVTCRASQGIGNYLAWFQLKPGKVPKRLIYAASSLQSGVPARFSGGGSGTEFTLTISSLQPEDFATYYCLQHGFLPWTFGQGTKLEIK	0.0044 µg/mL	0.247 µg/mL	–	–	–
NT-193, human IgG3 subclass (antibody, V domains shown) VH: EVQLQQWGAGLLKPSETLSLTCAVYGGSFSGYYWSWIRQPPGKGLEWIGEINHSGSTNYNPSLKSRVTISVDTSKNQFSLKLSSVTAADTAVYYCARGWDLDYYYGMDVWGQGTTVTVSS VL: DIRMTQSPSAMSASVGDRVTVTCRASQGIGNYLAWFQLKPGKVPKRLIYAASSLQSGVPARFSGGGSGTEFTLTISSLQPEDFATYYCLQHGFLPWTFGQGTKLEIK	0.001 µg/mL	0.127 µg/mL	–	–	–
NT-193, human IgG2 subclass (antibody, V domains shown) VH: EVQLQQWGAGLLKPSETLSLTCAVYGGSFSGYYWSWIRQPPGKGLEWIGEINHSGSTNYNPSLKSRVTISVDTSKNQFSLKLSSVTAADTAVYYCARGWDLDYYYGMDVWGQGTTVTVSS VL: DIRMTQSPSAMSASVGDRVTVTCRASQGIGNYLAWFQLKPGKVPKRLIYAASSLQSGVPARFSGGGSGTEFTLTISSLQPEDFATYYCLQHGFLPWTFGQGTKLEIK	0.0065 µg/mL	0.212 µg/mL	–	–	–
NT-108 (recombinant human IgG1/kappa antibody) (antibody, V domains shown) VH: EVQLQQSGPGLVKPSQTLSLTCSISGDSVSSNSAAWNWIRQSPSRGLEWLGRTYYRSKWYNDYAGTVKSRIAINPDTSKNQFSLHLNSVTPEDTAVYFCARVISVAGYAFDIWGQGTMVTVSS VL: EIVLTQSPGTLSLSPGERATLSCRASQSVSSTFLAWYQQKPGQAPRLLIYGASYMATGIPDRFSGSGSGTDFTLTISRLEPEDFAVYYCQQYGSSLTFGGGTKLEIK	–	–	0.0057 µg/mL	0.116 µg/mL	IC50, pseudovirus neutralization [3]: 0.0061 µg/mL; binding result [7]: no binding; binding result [8]: no binding; IC50, authentic virus neutralization (Authentic CoV2 [4]): 0.0403 µg/mL; EC50 [9]: 0.455 µg/mL
NT-108, human IgG4 subclass (antibody, V domains shown) VH: EVQLQQSGPGLVKPSQTLSLTCSISGDSVSSNSAAWNWIRQSPSRGLEWLGRTYYRSKWYNDYAGTVKSRIAINPDTSKNQFSLHLNSVTPEDTAVYFCARVISVAGYAFDIWGQGTMVTVSS VL: EIVLTQSPGTLSLSPGERATLSCRASQSVSSTFLAWYQQKPGQAPRLLIYGASYMATGIPDRFSGSGSGTDFTLTISRLEPEDFAVYYCQQYGSSLTFGGGTKLEIK	–	–	0.0031 µg/mL	0.116 µg/mL	–
NT-108, human IgG2 subclass (antibody, V domains shown) VH: EVQLQQSGPGLVKPSQTLSLTCSISGDSVSSNSAAWNWIRQSPSRGLEWLGRTYYRSKWYNDYAGTVKSRIAINPDTSKNQFSLHLNSVTPEDTAVYFCARVISVAGYAFDIWGQGTMVTVSS VL: EIVLTQSPGTLSLSPGERATLSCRASQSVSSTFLAWYQQKPGQAPRLLIYGASYMATGIPDRFSGSGSGTDFTLTISRLEPEDFAVYYCQQYGSSLTFGGGTKLEIK	–	–	0.002 µg/mL	0.101 µg/mL	–
NT-108, human IgG3 subclass (antibody, V domains shown) VH: EVQLQQSGPGLVKPSQTLSLTCSISGDSVSSNSAAWNWIRQSPSRGLEWLGRTYYRSKWYNDYAGTVKSRIAINPDTSKNQFSLHLNSVTPEDTAVYFCARVISVAGYAFDIWGQGTMVTVSS VL: EIVLTQSPGTLSLSPGERATLSCRASQSVSSTFLAWYQQKPGQAPRLLIYGASYMATGIPDRFSGSGSGTDFTLTISRLEPEDFAVYYCQQYGSSLTFGGGTKLEIK	–	–	0.001 µg/mL	0.049 µg/mL	–
